Test results as given in article doi:10.1101/027631.

Molecular target: recombinant tubulin lacking the β-tubulin CTT, polymerised into microtubules (S. cerevisiae | human) (UniProt P09733)
Test: TIRF microscopy of single fluorescent molecules on surface-held microtubules

reduction of the frequency of processive movement relative to WT MTs: 20%
Substance: dynein-dynactin-BicD2 (DDB) complex (from UniProt Q921C5 25-400; A0A287B8J2 1-1281)
